These results are taken from patent US20250368753A1.

Residue numbers refer to the chain shown, from its start.

B1: Reference Antibody (antibody, V domains shown)
VH: QVQLVQSGAEVKKPGASVKVSCKASGYTFTSYYMHWVRQAPGQGLEWMGEISPFGGRTNYNEKFKSRVTMTRDTSTSTVYMELSSLRSEDTAVYYCARERPLYASDLWGQGTTVTVSS
VL: DIQMTQSPSSLSASVGDRVTITCRASQGISSALAWYQQKPGKAPKLLIYSASYRYTGVPSRFSGSGSGTDFTFTISSLQPEDIATYYCQQRYSLWRTFGQGTKLEIK
B2: AB-8 (antibody, V domains shown)
VH: B1 VH with S52L, F54S, S105M, L107I
VL: B1 VL with L94T
B3: AB-7 (antibody, V domains shown)
VH: B1 VH with S52F, F54S, L102F
VL: B1 VL with Y53N, R54L
B4: AB-9 (antibody, V domains shown)
VH: B1 VH with S52K, F54S, R57T, T58S, E99D, A104Y, L107V
VL: B1 VL with S31G, A32S, R91Y, L94N, W95Y, R96W
B5: AB-2 (antibody, V domains shown)
VH: B1 VH with E50W, S52E, S105M, L107V
VL: B1 VL with S31G, W95S
B6: AB-3 (antibody, V domains shown)
VH: B1 VH with Y33W, S52D, F54S, R57S, E62Q, K65Q, L107V
VL: B1 VL
B7: AB-4 (antibody, V domains shown)
VH: B1 VH with S52R, F54S, R57S, E99D, A104S, S105M, L107V
VL: B1 VL with R91H, L94S, W95S, R96W
B8: AB-6 (antibody, V domains shown)
VH: B1 VH with R57T, A104S, L107V
VL: B1 VL with R54L, T56S, R96Y
B9: AB-11 (antibody, V domains shown)
VH: B1 VH with T28S, S52D, P53L, F54S, R57S, E62Q, K65Q, S105F, L107V
VL: B1 VL
B10: AB-5 (antibody, V domains shown)
VH: B1 VH with Y33W, F54S, R57S, S105M, L107V
VL: B1 VL
B11: AB-1 (antibody, V domains shown)
VH: B1 VH with S52L, F54G, R57T, E62Q, R100S, L107I
VL: B1 VL with S31T, R54L
B12: AB-10 (antibody, V domains shown)
VH: B1 VH with S52L, F54S, S105M, L107V
VL: B1 VL with L94V, W95A, R96L

The first assay concerns the target proprotein convertase subtilisin/kexin type 9 (PCSK9) (human) (UniProt Q8NBP7). Kind of assay: DELFIA immunoassay (PerkinElmer Cat. #1244-330), full-length IgG on PCSK9.
UniProt Q8NBP7, sequence (Q8NBP7 other isoform, or with tags, fused parts or gaps limits assumed): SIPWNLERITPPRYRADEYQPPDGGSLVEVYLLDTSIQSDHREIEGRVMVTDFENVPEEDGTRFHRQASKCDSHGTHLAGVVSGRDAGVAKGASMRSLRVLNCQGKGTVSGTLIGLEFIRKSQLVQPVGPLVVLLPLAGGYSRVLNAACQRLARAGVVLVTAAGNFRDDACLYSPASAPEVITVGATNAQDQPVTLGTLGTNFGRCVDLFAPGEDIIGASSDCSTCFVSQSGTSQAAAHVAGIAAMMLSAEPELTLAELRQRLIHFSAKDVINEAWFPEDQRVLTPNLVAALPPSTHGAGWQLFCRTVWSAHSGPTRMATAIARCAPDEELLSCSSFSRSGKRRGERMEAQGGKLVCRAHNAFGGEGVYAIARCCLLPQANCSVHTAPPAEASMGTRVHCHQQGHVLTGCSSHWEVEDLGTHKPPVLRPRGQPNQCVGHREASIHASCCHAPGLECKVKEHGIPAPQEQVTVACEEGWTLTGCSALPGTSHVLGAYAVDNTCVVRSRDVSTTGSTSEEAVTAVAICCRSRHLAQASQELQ
B1: the Relative Binding to PCSK9 Measured by DELIFA Immunoassay is 6.6.

Regarding B2, the Relative Binding to PCSK9 Measured by DELIFA Immunoassay is 2.9. In the case of B3, the Relative Binding to PCSK9 Measured by DELIFA Immunoassay is 2. The same measure, in the same setting: with B4 the figure was 3.9; with B5, 3.1. The same measure, in the same setting: with B6 the figure was 2.8; with B7, 2.9. Molecule B8 displayed a Relative Binding to PCSK9 Measured by DELIFA Immunoassay of 1.8. The same measure, in the same setting: with B9 the figure was 2.4.

In the case of B10, the Relative Binding to PCSK9 Measured by DELIFA Immunoassay came out at 4.3. Turning to B11, the Relative Binding to PCSK9 Measured by DELIFA Immunoassay was 1.8. Take B12: the Relative Binding to PCSK9 Measured by DELIFA Immunoassay was 4.3.

A further assay shares this target. Kind of assay: PCSK9 biochemical disruption assay (BPS Biosciences Cat. #72010); antibody disrupts PCSK9 binding to LDL-R.
As for B1, the IC50 (commonly the point on the concentration scale where inhibition reaches its midpoint) worked out at 20 nM. As to B2, the IC50 was 18.4 nM. The IC50 values of the last two molecules are within 1.5-fold of each other. The molecule B3 gave an IC50 of 18.1 nM. On the same count and under the same terms, with B5 the figure was 17.2 nM; with B6, 16.1 nM. B8 had an IC50 of 16.5 nM. The same measure, in the same setting: with B9 the figure was 20.8 nM; with B10, 18.9 nM; with B11, 18.4 nM.

The molecule B12 gave an IC50 of 20.1 nM.

For another assay the target is unchanged. Kind of assay: PCSK9 biochemical disruption assay (BPS Biosciences Cat. #72010); antibody disrupts PCSK9 binding to LDL-R; positive signal but IC50 not reached at the concentrations tested.
The molecule B4 returned an IC50 greater than 53 nM. B7: the concentration for half-maximal inhibition (IC50) was greater than 53 nM.

The target is the same in a further assay. Kind of assay: DELFIA immunoassay (PerkinElmer Cat. #1244-330) on PCSK9.
With Control (antibody), the Relative Binding to PCSK9 Measured by DELIFA Immunoassay is 5.2.
